Measurements published in patent US20230174642A1, “AFFINITY-MATURATED ANTI-ASIC1a ANTIBODIES” (SHANGHAITECH UNIVERSITY, priority 2019, published 2023).

Assays:
ASIC1a [1] = target: T1, ASIC1a (Homo sapiens, UniProt P78348); experiment: FLIPR-based fluorescent membrane potential (FMP) assay; format: cell-based; settings: increasing doses, pH 6
T1 construct: expressed in transfected cells
T1 sequence (P78348 1-528): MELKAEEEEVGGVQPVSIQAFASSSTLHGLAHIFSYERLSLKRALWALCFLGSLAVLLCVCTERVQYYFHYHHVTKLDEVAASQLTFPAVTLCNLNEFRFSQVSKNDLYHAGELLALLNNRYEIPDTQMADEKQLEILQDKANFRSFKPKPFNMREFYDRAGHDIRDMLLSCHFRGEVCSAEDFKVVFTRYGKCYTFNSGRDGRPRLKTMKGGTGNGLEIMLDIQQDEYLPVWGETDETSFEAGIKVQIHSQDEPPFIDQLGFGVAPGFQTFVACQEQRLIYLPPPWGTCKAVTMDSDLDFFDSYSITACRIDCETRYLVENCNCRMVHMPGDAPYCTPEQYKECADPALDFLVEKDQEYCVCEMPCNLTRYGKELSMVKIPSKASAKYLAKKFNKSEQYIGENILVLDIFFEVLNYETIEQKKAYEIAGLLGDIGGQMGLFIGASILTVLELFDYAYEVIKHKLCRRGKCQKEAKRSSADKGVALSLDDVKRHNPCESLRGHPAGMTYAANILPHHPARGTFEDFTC
Text: A fluorescence-based assay using the FLIPR Membrane Potential Assay Kit (FMP kit) (Molecular Devices) was used for functional characterization of ASC06-IgG1 and the affinity-matured derivatives thereof. Specifically, the role of ASIC1a in acidosis and the effect of the antibodies of current disclosure was probed further. The FMP dye in the kit is a lipophilic, anionic, bis-oxonol dye, which permits a sensitive evaluation of changes in membrane potential with a more rapid response time. Using the FMP kit, a sensitive cell-based assay to detect acid-induced ASIC1a currents was developed using a cell line stably expressing ASIC1a. The ASIC1a-expressing stable cells were seeded in 96-well plates. The cells were treated with different concentrations of ASC06-IgG1. Untreated cells were used as a negative control. ASIC1a was stimulated by inducing acidosis by decreasing the extracellular pH to 6, and the changes in the fluorescent signal of the FMP dye were measured. An isotype control was used as a negative control for binding. […] The assay was applied to detect the efficiency of inhibition of ASIC1a currents by ASC06-IgG1, and affinity-matured derivatives thereof.
Using similar assays, the IC50 values for inhibition of ASIC1a currents were calculated based on the maximal fluorescent intensity of each concentration of antibodies compared to the negative control.

ASIC1a [2] = target: T1, ASIC1a; experiment: FLIPR-based assay of ASIC1a-mediated calcium influx; format: cell-based; settings: increasing doses, pH 6
Experimental: The calcium influx of the ASIC1a channel was measured using a Fluorescence Imaging Plate Reader (FLIPR) instrument by measuring the fluorescent signal generated by the intracellular calcium indicator dye Calcium 5 (Molecular Devices) in a stable cell line expressing hASIC1a-m Cherry fusion.
The inhibition to calcium influx the affinity-matured ASC06-IgG1 derivative antibodies was also measured using the FLIPR-based assay. Using these assays, the IC50 values were calculated based on the maximal fluorescent intensity of the intracellular calcium indicator dye.

B1: ASC06-IgG1: parental (WT) ASIC1a-specific antagonist antibody; VL SEQ ID NO: 2, VH SEQ ID NO: 7, VH-CDR3 DSFYGYSKGD (antibody, V domains shown)
VH: QVQLQQSGGGLVQPGGSLRLSCAASGFTFSSYAMSWVRQAPGKGLEWVSAISGSGGSTYYADSVKGRFTISRDNSKNTLYLQMNSLRAEDTAVYYCAKDSFYGYSKGDWGQGTLVTVSS
VL: QSALTQPASVSGSPGQSITISCTGTSSDVGAYNYVSWYQQQPGKAPKLMIYGVSNRPSGVSNRFSGSKSGNAASLTISGLQAEDEADYYCSSYTSSSTYVFGTGTKLTVLG
modifications: IgG1 constant regions; Amino acid sequence VH of ASC06; Amino acid sequence VL of ASC06
- inhibition of the fluorescent intensities (ASIC1a-mediated current) (ASIC1a [1]): dose-dependent inhibition
- inhibition of calcium influx (ASIC1a [2]): dose-dependent inhibition
